In patent publication US20250129165A1:

Columns and labels:
[1] = molecular target: human BTN3A as expressed on human cells (PBMCs, Daudi Burkitt's lymphoma cells, AML cells, monocytes) (human) (UniProt O00481); test: flow cytometry on human PBMCs
[2] = molecular target: human BTN3A as expressed on human cells (PBMCs, Daudi Burkitt's lymphoma cells, AML cells, monocytes) (human) (UniProt O00481); test: flow cytometry on Daudi Burkitt's lymphoma cells
[3] = molecular target: human BTN3A1 antigen (Sino Biological cat. no. 15973-H08H) (human) (UniProt O00481); test: SPR, Biacore T200 multi-cycle kinetics; antibody captured on Protein A, BTN3A1 as analyte
human BTN3A1 antigen (Sino Biological cat. no. 15973-H08H) (human), sequence (O00481 30-254 limits assumed): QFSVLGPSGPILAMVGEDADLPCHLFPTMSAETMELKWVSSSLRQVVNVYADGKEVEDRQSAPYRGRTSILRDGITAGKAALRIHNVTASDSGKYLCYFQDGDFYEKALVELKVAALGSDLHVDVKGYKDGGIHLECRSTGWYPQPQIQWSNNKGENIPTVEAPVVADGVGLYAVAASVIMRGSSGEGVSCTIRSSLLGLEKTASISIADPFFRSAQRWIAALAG

[4] = molecular target: human BTN3A as expressed on human cells (PBMCs, Daudi Burkitt's lymphoma cells, AML cells, monocytes) (human) (UniProt O00481); test: cell-based or functional assay
[5] = molecular target: cynomolgus BTN3A as expressed on cynomolgus PBMCs (cynomolgus); test: flow cytometry on cynomolgus PBMCs

For mAb 20.1, parent murine antibody, which EC50 [1] is on record?
The EC50 was 3.02 mg/L.

What about the EC50 [2] of the same substance?
Its EC50 is 1.19 mg/L.

What about the Kd [3] of the same substance?
The Kd was 0.234 nM.

And the Functional assay (AML resistant) (γδT cell-based, EC50, µg/mL) [4]?
The Functional assay (AML resistant) (γδT cell-based, EC50, µg/mL) was 0.18 µg/mL.

And the Functional assay (AML sensitive) (γδT cell-based, EC50, µg/mL) [4]?
The Functional assay (AML sensitive) (γδT cell-based, EC50, µg/mL) was 0.05 µg/mL.

And the Functional assay (Daudi) (γδT cell-based, EC50, µg/mL) [4]?
The Functional assay (Daudi) (γδT cell-based, EC50, µg/mL) was 0.02 µg/mL.

What about the Vγ9Vδ2 T cell degranulation with PBMCs from C. burnetii patients, 20.1 at 10 µg/ml [4] of the same substance?
Its Vγ9Vδ2 T cell degranulation with PBMCs from C. burnetii patients, 20.1 at 10 µg/ml is 24.1%.

And the Vγ9Vδ2 T cell degranulation with PBMCs from healthy donors, 20.1 at 10 µg/ml [4]?
Its Vγ9Vδ2 T cell degranulation with PBMCs from healthy donors, 20.1 at 10 µg/ml is 3.24%.

And the Vγ9Vδ2 T cell degranulation, Mean % CD107+ cells, monocytes infected with C. burnetii Guiana, 20.1 at 10 µg/ml (isotype 37.23) (% CD107+ cells) [4]?
Its Vγ9Vδ2 T cell degranulation, Mean % CD107+ cells, monocytes infected with C. burnetii Guiana, 20.1 at 10 µg/ml (isotype 37.23) (% CD107+ cells) is 71.5.

What about the Vγ9Vδ2 T cell degranulation, Mean % CD107+ cells, monocytes infected with C. burnetii NM1, 20.1 at 10 µg/ml (isotype 42.1) (% CD107+ cells) [4] of the same substance?
The Vγ9Vδ2 T cell degranulation, Mean % CD107+ cells, monocytes infected with C. burnetii NM1, 20.1 at 10 µg/ml (isotype 42.1) (% CD107+ cells) was 67.2.

And the Vγ9Vδ2 T cell degranulation, Mean % CD107+ cells, non stimulated monocytes, 20.1 at 10 µg/ml (isotype 8.59) (% CD107+ cells) [4]?
The Vγ9Vδ2 T cell degranulation, Mean % CD107+ cells, non stimulated monocytes, 20.1 at 10 µg/ml (isotype 8.59) (% CD107+ cells) was 45.8.

And the EC50 [5]?
Its EC50 is 4.06 mg/L.
